By Kd is commonly meant the equilibrium constant for the complex coming apart. Low values mean higher affinity, high ones lower affinity.

Where “and” joins values, the source holds several entries; their conditions need not be identical. Identical values can stand only once.

Data on 2 molecules can be found in patent publication US20250387497A1, “MULTIVALENT MULTISPECIFIC CONJUGATES AND RELATED COMPOSITIONS AND METHODS OF USE” (Purdue Research Foundation, priority 2022, published 2025).

Experiment [1] concerns the target Her2 (human epidermal growth factor receptor 2). Put plainly: binding affinity, method not stated.
In experiment [2] the target is epidermal growth factor receptor (EGFR). The experiment is described as follows: binding affinity, method not stated.

Consider FCGDGFYACYMDV [peptide "H", binding motif for Her2, …], for which the Kd in experiment [1] is < 500 nM and 300 nM.

With YHWYGYTPQNVI [peptide "E", binding motif for EGFR, …], the Kd in experiment [2] was 459 µM.
